Measurements reported in paper PMC6166933 (PLoS ONE, 2018).
“And” between values parts separate entries of the source, which are not always exact repeats. Equal entries are not always repeated.

Biological target: T1, Recombinant human RO60 (human, UniProt P10155 1-538)
T1 construct: Recombinant human RO60 (rRO60), Abcam ab73786; see the vendor's data sheet for ab73786; also called rRO60; source: bought: Abcam (ab73786)
Assay: BLI; BLItz system; antibody against RO60 captured on a Protein-A biosensor, rRO60 bound to it, rDDX6 bound for 2 min and dissociation for 2 min; 25°C; 10 mM Tris-HCl (pH 8.0), 150 mM NaCl; 193 nM rDDX6 with 917 nM or 1833 nM rRO60
Conditions: both partners purified

T1 sequence (P10155 whole entry): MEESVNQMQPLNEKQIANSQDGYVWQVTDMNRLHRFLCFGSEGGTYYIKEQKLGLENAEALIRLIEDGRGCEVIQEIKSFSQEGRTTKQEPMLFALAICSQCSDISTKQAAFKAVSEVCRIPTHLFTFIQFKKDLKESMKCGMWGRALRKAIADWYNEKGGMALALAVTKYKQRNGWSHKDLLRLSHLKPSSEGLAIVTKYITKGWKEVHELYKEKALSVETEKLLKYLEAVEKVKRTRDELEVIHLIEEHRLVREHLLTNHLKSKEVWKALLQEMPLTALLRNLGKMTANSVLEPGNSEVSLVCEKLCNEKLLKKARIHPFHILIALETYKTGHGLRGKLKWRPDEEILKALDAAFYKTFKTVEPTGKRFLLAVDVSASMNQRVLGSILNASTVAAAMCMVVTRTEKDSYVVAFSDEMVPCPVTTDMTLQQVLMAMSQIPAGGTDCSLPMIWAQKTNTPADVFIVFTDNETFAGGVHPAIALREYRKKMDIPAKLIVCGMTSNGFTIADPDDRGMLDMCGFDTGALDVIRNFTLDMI

B1: Recombinant GST-tagged human DDX6 (natural protein, UniProt P26196 1-483, looked up)
chain: MSTARTENPVIMGLSSQNGQLRGPVKPTGGPGGGGTQTQQQMNQLKNTNTINNGTQQQAQSMTTTIKPGDDWKKTLKLPPKDLRIKTSDVTSTKGNEFEDYCLKRELLMGIFEMGWEKPSPIQEESIPIALSGRDILARAKNGTGKSGAYLIPLLERLDLKKDNIQAMVIVPTRELALQVSQICIQVSKHMGGAKVMATTGGTNLRDDIMRLDDTVHVVIATPGRILDLIKKGVAKVDHVQMIVLDEADKLLSQDFVQIMEDIILTLPKNRQILLYSATFPLSVQKFMNSHLQKPYEINLMEELTLKGVTQYYAYVTERQKVHCLNTLFSRLQINQSIIFCNSSQRVELLAKKISQLGYSCFYIHAKMRQEHRNRVFHDFRNGLCRNLVCTDLFTRGIDIQAVNVVINFDFPKLAETYLHRIGRSGRFGHLGLAINLITYDDRFNLKSIEEQLGTEIKPIPSNIDKSLYVAEYHSEPVEDEKP
notes: Recombinant GST-tagged human DDX6 (rDDX6), Abcam ab114574; it is not clear that this means full length; The printed 79 kDa with GST would fit the whole protein; also called rDDX6; source: bought: Abcam (ab114574)
Kd: 0.62 µM and 0.95 µM
